Reference: US20150087577A1 (POLYPHOR, published 2015)
Bridges are numbered along the chain shown (N, C = ends). [ ]: non-standard residue; d: D form. 2Nal = N[C@@H](Cc1ccc2ccccc2c1)C(=O)O; Cit = NC(=O)NCCC[C@H](N)C(=O)O; Dab = NCC[C@H](N)C(=O)O

Target: human CXCR4 (human, UniProt P61073 1-352)
Assay: cell-based or functional assay

human CXCR4, sequence (P61073 whole entry): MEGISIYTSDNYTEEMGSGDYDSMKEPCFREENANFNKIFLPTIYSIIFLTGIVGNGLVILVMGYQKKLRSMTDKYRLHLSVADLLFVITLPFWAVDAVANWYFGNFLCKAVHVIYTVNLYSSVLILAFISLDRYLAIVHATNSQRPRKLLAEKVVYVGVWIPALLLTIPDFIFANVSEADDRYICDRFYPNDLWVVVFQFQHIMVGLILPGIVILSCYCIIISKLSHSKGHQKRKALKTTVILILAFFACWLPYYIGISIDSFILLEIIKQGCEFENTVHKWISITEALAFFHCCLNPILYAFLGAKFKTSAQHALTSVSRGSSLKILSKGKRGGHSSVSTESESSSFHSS

| Binder | IC50 (nM) Ca2+ assay (method 2) [nM] | IC50 (nM) Ca2+ assay (method 1) [nM] |
| --- | --- | --- |
| cyclo(YRTCRG[dP][Dab]RWCYQK[dP]P) (disulfide 4-11; SMILES C[C@@H](O)[C@@H]1NC(=O)[C@H](CCCNC(=N)N)NC(=O)[C@H](Cc2ccc(O)cc2)NC(=O)[C@@H]2CCCN2C(=O)[C@H]2CCCN2C(=O)[C@H](CCCCN)NC(=O)[C@H](CCC(N)=O)NC(=O)[C@H](Cc2ccc(O)cc2)NC(=O)[C@@H]2CSSC[C@H](NC1=O)C(=O)N[C@@H](CCCNC(=N)N)C(=O)NCC(=O)N1CCC[C@@H]1C(=O)N[C@@H](CCN)C(=O)N[C@@H](CCCNC(=N)N)C(=O)N[C@@H](Cc1c[nH]c3ccccc13)C(=O)N2) [Example 110] | 1.7 | – |
| cyclo(FR[Cit]CRG[dP]RRWCY[Cit]K[dP]P) (disulfide 4-11; SMILES N=C(N)NCCC[C@@H]1NC(=O)[C@@H]2CSSC[C@H](NC(=O)[C@H](Cc3c[nH]c4ccccc34)NC(=O)[C@H](CCCNC(=N)N)NC(=O)[C@H](CCCNC(=N)N)NC(=O)[C@H]3CCCN3C(=O)CNC1=O)C(=O)N[C@@H](Cc1ccc(O)cc1)C(=O)N[C@@H](CCCNC(N)=O)C(=O)N[C@@H](CCCCN)C(=O)N1CCC[C@@H]1C(=O)N1CCC[C@H]1C(=O)N[C@@H](Cc1ccccc1)C(=O)N[C@@H](CCCNC(=N)N)C(=O)N[C@@H](CCCNC(N)=O)C(=O)N2) [Example 107] | 3.8 | – |
| cyclo(YR[Cit]FRVPRR[2Nal]VY[Cit]K[dP]P) (SMILES CC(C)[C@@H]1NC(=O)[C@H](Cc2ccc3ccccc3c2)NC(=O)[C@H](CCCNC(=N)N)NC(=O)[C@H](CCCNC(=N)N)NC(=O)[C@@H]2CCCN2C(=O)[C@H](C(C)C)NC(=O)[C@H](CCCNC(=N)N)NC(=O)[C@H](Cc2ccccc2)NC(=O)[C@H](CCCNC(N)=O)NC(=O)[C@H](CCCNC(=N)N)NC(=O)[C@H](Cc2ccc(O)cc2)NC(=O)[C@@H]2CCCN2C(=O)[C@H]2CCCN2C(=O)[C@H](CCCCN)NC(=O)[C@H](CCCNC(N)=O)NC(=O)[C@H](Cc2ccc(O)cc2)NC1=O) [Example 22] | – | 300 |
| cyclo(YR[Cit]CRG[dP]RRYCY[Cit]K[dP]P) (disulfide 4-11; SMILES N=C(N)NCCC[C@@H]1NC(=O)[C@@H]2CSSC[C@H](NC(=O)[C@H](Cc3ccc(O)cc3)NC(=O)[C@H](CCCNC(=N)N)NC(=O)[C@H](CCCNC(=N)N)NC(=O)[C@H]3CCCN3C(=O)CNC1=O)C(=O)N[C@@H](Cc1ccc(O)cc1)C(=O)N[C@@H](CCCNC(N)=O)C(=O)N[C@@H](CCCCN)C(=O)N1CCC[C@@H]1C(=O)N1CCC[C@H]1C(=O)N[C@@H](Cc1ccc(O)cc1)C(=O)N[C@@H](CCCNC(=N)N)C(=O)N[C@@H](CCCNC(N)=O)C(=O)N2) [Example 112] | 7.8 | – |
| cyclo(YR[Cit]CRG[dP]RRYC[Cit]YK[dP]P) (disulfide 4-11; SMILES N=C(N)NCCC[C@@H]1NC(=O)[C@@H]2CSSC[C@H](NC(=O)[C@H](Cc3ccc(O)cc3)NC(=O)[C@H](CCCNC(=N)N)NC(=O)[C@H](CCCNC(=N)N)NC(=O)[C@H]3CCCN3C(=O)CNC1=O)C(=O)N[C@@H](CCCNC(N)=O)C(=O)N[C@@H](Cc1ccc(O)cc1)C(=O)N[C@@H](CCCCN)C(=O)N1CCC[C@@H]1C(=O)N1CCC[C@H]1C(=O)N[C@@H](Cc1ccc(O)cc1)C(=O)N[C@@H](CCCNC(=N)N)C(=O)N[C@@H](CCCNC(N)=O)C(=O)N2) [Example 113] | 0.62 | – |
| cyclo(GR[Cit]CRG[dP]RR[2Nal]CY[Cit]K[dP]P) (disulfide 4-11; SMILES N=C(N)NCCC[C@@H]1NC(=O)CNC(=O)[C@@H]2CCCN2C(=O)[C@H]2CCCN2C(=O)[C@H](CCCCN)NC(=O)[C@H](CCCNC(N)=O)NC(=O)[C@H](Cc2ccc(O)cc2)NC(=O)[C@@H]2CSSC[C@H](NC(=O)[C@H](CCCNC(N)=O)NC1=O)C(=O)N[C@@H](CCCNC(=N)N)C(=O)NCC(=O)N1CCC[C@@H]1C(=O)N[C@@H](CCCNC(=N)N)C(=O)N[C@@H](CCCNC(=N)N)C(=O)N[C@@H](Cc1ccc3ccccc3c1)C(=O)N2) [Example 114] | 1.3 | – |
| cyclo(YR[Cit]CRG[dP]RR[2Nal]CY[Cit]E[dP]P) (disulfide 4-11; SMILES N=C(N)NCCC[C@@H]1NC(=O)[C@@H]2CSSC[C@H](NC(=O)[C@H](Cc3ccc4ccccc4c3)NC(=O)[C@H](CCCNC(=N)N)NC(=O)[C@H](CCCNC(=N)N)NC(=O)[C@H]3CCCN3C(=O)CNC1=O)C(=O)N[C@@H](Cc1ccc(O)cc1)C(=O)N[C@@H](CCCNC(N)=O)C(=O)N[C@@H](CCC(=O)O)C(=O)N1CCC[C@@H]1C(=O)N1CCC[C@H]1C(=O)N[C@@H](Cc1ccc(O)cc1)C(=O)N[C@@H](CCCNC(=N)N)C(=O)N[C@@H](CCCNC(N)=O)C(=O)N2) [Example 103] | 18.3 | – |

Now from value to binder:

| IC50 (nM) Ca2+ assay (method 2) [nM] | IC50 (nM) Ca2+ assay (method 1) [nM] | Binder |
| --- | --- | --- |
| 4.6 | – | cyclo(YR[Cit]CRG[dP]RRWCYQK[dP]P) (disulfide 4-11; SMILES N=C(N)NCCC[C@@H]1NC(=O)[C@@H]2CSSC[C@H](NC(=O)[C@H](Cc3c[nH]c4ccccc34)NC(=O)[C@H](CCCNC(=N)N)NC(=O)[C@H](CCCNC(=N)N)NC(=O)[C@H]3CCCN3C(=O)CNC1=O)C(=O)N[C@@H](Cc1ccc(O)cc1)C(=O)N[C@@H](CCC(N)=O)C(=O)N[C@@H](CCCCN)C(=O)N1CCC[C@@H]1C(=O)N1CCC[C@H]1C(=O)N[C@@H](Cc1ccc(O)cc1)C(=O)N[C@@H](CCCNC(=N)N)C(=O)N[C@@H](CCCNC(N)=O)C(=O)N2) [Example 108] |
| 0.62 | – | cyclo(YH[Cit]CRG[dP]RRWCY[Cit]K[dP]P) (disulfide 4-11; SMILES N=C(N)NCCC[C@@H]1NC(=O)[C@@H]2CSSC[C@H](NC(=O)[C@H](Cc3c[nH]c4ccccc34)NC(=O)[C@H](CCCNC(=N)N)NC(=O)[C@H](CCCNC(=N)N)NC(=O)[C@H]3CCCN3C(=O)CNC1=O)C(=O)N[C@@H](Cc1ccc(O)cc1)C(=O)N[C@@H](CCCNC(N)=O)C(=O)N[C@@H](CCCCN)C(=O)N1CCC[C@@H]1C(=O)N1CCC[C@H]1C(=O)N[C@@H](Cc1ccc(O)cc1)C(=O)N[C@@H](Cc1c[nH]cn1)C(=O)N[C@@H](CCCNC(N)=O)C(=O)N2) [Example 105] |
| 3 | – | cyclo(YR[Cit]CRG[dP][Dab]RWCYQK[dP]P) (disulfide 4-11; SMILES N=C(N)NCCC[C@@H]1NC(=O)[C@@H]2CSSC[C@H](NC(=O)[C@H](Cc3c[nH]c4ccccc34)NC(=O)[C@H](CCCNC(=N)N)NC(=O)[C@H](CCN)NC(=O)[C@H]3CCCN3C(=O)CNC1=O)C(=O)N[C@@H](Cc1ccc(O)cc1)C(=O)N[C@@H](CCC(N)=O)C(=O)N[C@@H](CCCCN)C(=O)N1CCC[C@@H]1C(=O)N1CCC[C@H]1C(=O)N[C@@H](Cc1ccc(O)cc1)C(=O)N[C@@H](CCCNC(=N)N)C(=O)N[C@@H](CCCNC(N)=O)C(=O)N2) [Example 109] |
| 1.6 | – | cyclo(YR[Cit]C[Dab]G[dP]RRWCYQK[dP]P) (disulfide 4-11; SMILES N=C(N)NCCC[C@@H]1NC(=O)[C@H](CCCNC(=N)N)NC(=O)[C@H]2CCCN2C(=O)CNC(=O)[C@H](CCN)NC(=O)[C@@H]2CSSC[C@H](NC(=O)[C@H](Cc3c[nH]c4ccccc34)NC1=O)C(=O)N[C@@H](Cc1ccc(O)cc1)C(=O)N[C@@H](CCC(N)=O)C(=O)N[C@@H](CCCCN)C(=O)N1CCC[C@@H]1C(=O)N1CCC[C@H]1C(=O)N[C@@H](Cc1ccc(O)cc1)C(=O)N[C@@H](CCCNC(=N)N)C(=O)N[C@@H](CCCNC(N)=O)C(=O)N2) [Example 111] |
| 3.1 | – | cyclo(YK[Cit]CRG[dP]RRWCY[Cit]K[dP]P) (disulfide 4-11; SMILES N=C(N)NCCC[C@@H]1NC(=O)[C@@H]2CSSC[C@H](NC(=O)[C@H](Cc3c[nH]c4ccccc34)NC(=O)[C@H](CCCNC(=N)N)NC(=O)[C@H](CCCNC(=N)N)NC(=O)[C@H]3CCCN3C(=O)CNC1=O)C(=O)N[C@@H](Cc1ccc(O)cc1)C(=O)N[C@@H](CCCNC(N)=O)C(=O)N[C@@H](CCCCN)C(=O)N1CCC[C@@H]1C(=O)N1CCC[C@H]1C(=O)N[C@@H](Cc1ccc(O)cc1)C(=O)N[C@@H](CCCCN)C(=O)N[C@@H](CCCNC(N)=O)C(=O)N2) [Example 106] |
| 7.4 | – | cyclo(YRTCRG[dP][Dab]R[2Nal]CYQK[dP]P) (disulfide 4-11; SMILES C[C@@H](O)[C@@H]1NC(=O)[C@H](CCCNC(=N)N)NC(=O)[C@H](Cc2ccc(O)cc2)NC(=O)[C@@H]2CCCN2C(=O)[C@H]2CCCN2C(=O)[C@H](CCCCN)NC(=O)[C@H](CCC(N)=O)NC(=O)[C@H](Cc2ccc(O)cc2)NC(=O)[C@@H]2CSSC[C@H](NC1=O)C(=O)N[C@@H](CCCNC(=N)N)C(=O)NCC(=O)N1CCC[C@@H]1C(=O)N[C@@H](CCN)C(=O)N[C@@H](CCCNC(=N)N)C(=O)N[C@@H](Cc1ccc3ccccc3c1)C(=O)N2) [Example 104] |
| – | 550 | cyclo(YR[Cit]FRV[dP]RR[2Nal]VY[Cit]K[dP]P) (SMILES CC(C)[C@@H]1NC(=O)[C@H](Cc2ccc3ccccc3c2)NC(=O)[C@H](CCCNC(=N)N)NC(=O)[C@H](CCCNC(=N)N)NC(=O)[C@H]2CCCN2C(=O)[C@H](C(C)C)NC(=O)[C@H](CCCNC(=N)N)NC(=O)[C@H](Cc2ccccc2)NC(=O)[C@H](CCCNC(N)=O)NC(=O)[C@H](CCCNC(=N)N)NC(=O)[C@H](Cc2ccc(O)cc2)NC(=O)[C@@H]2CCCN2C(=O)[C@H]2CCCN2C(=O)[C@H](CCCCN)NC(=O)[C@H](CCCNC(N)=O)NC(=O)[C@H](Cc2ccc(O)cc2)NC1=O) [Example 21] |
